Tests used:
[1] = tested on: inner hair cells of mouse cochlear explant; assay: Reversal of FAM19A5-induced inhibition of synaptogenesis (CtBP2 puncta); format: cell-based; settings: 1 μM FAM19A5 protein plus anti-FAM19A5 antibody, treated 1 DIV, stained 2 DIV
Experimental: Cochlear explant were cultured in medium consisting of plating media, which consist of Neurobasal media (Invitrogen), 1% N2 supplement, and 10 μg/mL Ampicillin with culture media with additional 1% FBS.
Postnatal day 4-5 (P4-5) C57BL/6 mice were sacrificed for inner ear dissection. Mouse head was bisected, and brain tissue was removed. Cochlea was carefully separated the from the extraneous bones in ice-cold HBSS (5 mM HEPES/1.3 mM CaCl2), 0.9 mM MgCl2, pH 7.4) or External solution (1.2 mM CaCl2), 1 mM MgCl2, 5 mM HEPES in HBSS). Then the stria vascularis and spiral bone plate was removed, and cochlea was cut into two to three sections. […]
Mouse cochlear explant cultures were treated with FAM19A5, FAM19A5 combined with a FAM19A5 antagonist (e.g., described herein, e.g., 1-30 antibody), or a FAM19A5 antagonist (e.g., described herein, e.g., 1-30 antibody) alone at 1 DIV to determine the level of synaptogenesis at 2 DIV by immunostaining CtBP2, a ribbon synapse marker. To quantify the number of CtBP2 puncta of individual inner hair cells, z-stack confocal images were exported in “multi-page” and the number of CtBP2 puncta from each individual inner hair cells were measured using ROI manger and multi-point tool from Fiji (Image J). Number of CtBP2 puncta from five individual inner hair cells were counted per image and 3 z-stack images were measured from each treatment group. […]

[2] = tested on: noise-induced hearing loss mouse model; assay: Noise-induced hearing loss mouse model, first antibody dose 2 hours post noise exposure; format: in vivo; settings: first dose 2 hours post noise
Experimental: FIGS. 13A, 13B, 13C, 13D, and 13E show the therapeutic effect of FAM19A5 antagonists (administered 2 hours after noise induction) on auditory brainstem response (ABR) threshold in a noise-induced hearing loss mouse model. The overall design was similar as that provided in FIG. 6A, except that the antibodies were administered to the animals at 2 hours post noise induction. FIG. 13A provides the results before noise exposure. FIG. 13B provides the results at one day post noise exposure. FIG. 13C provides the results at two weeks post noise exposure. FIG. 13D provides the results at four weeks post noise exposure. FIG. 13E provides the results at eight weeks post noise exposure. ABR threshold was measured at a frequency ranging from 4 kHz to 64 kHz.
FIGS. 14A and 14B show the effect of FAM19A5 antagonists on ABR I/O function in a noise-induced hearing loss mouse model. FIG. 14A provides comparisons of wave I amplitude (1st graph) and wave IV amplitude (2nd graph) in animals treated with the anti-FAM19A5 antibody (square), before noise group (triangle) or control IgG antibody (circle) 2 weeks after noise exposure. FIG. 14B provides comparisons of wave I amplitude (1st graph) and wave IV amplitude (2nd graph) in animals treated with the anti-FAM19A5 antibody (square), before noise group (triangle) or control IgG antibody (circle) 4 weeks after noise exposure. Tone bursts were measured across 0 and 90 dB.
Next, to assess whether the timing of the anti-FAM19A5 antibody administration has an effect, the above-described noise-induced hearing loss mouse model was used again. Again, to induce hearing loss, the animals were exposed to a temporary threshold shift (TTS) of 105 decibels for 30 minutes. An anti-FAM19A5 antibody (1-30 antibody) or a control human IgG antibody was intravenously administered to the animals once weekly for 5 total administration (30 mg/kg per dose). […] Hearing loss was assessed (e.g., by measuring ABR threshold, DPOAE threshold, and/or DPOAE amplitude) in the animals prior to the noise exposure and then again at one day, two weeks, and four weeks post noise exposure.

[3] = 2 and 4 weeks after noise, particularly at higher tone-burst levels

B1: 1-30: anti-FAM19A5 antibody, de-immunized variant of 3-2; VH SEQ ID NO: 235, VL SEQ ID NO: 240 (antibody, V domains shown)
VH: AVTLDESGGGLQTPGGALRLSCKASGFDFESFNMFWVRQAPGKGLEYVSQISSSEEDENYAPAVKGRATISRDNGQSTLYLQMNSLRAEDTGTYYCAKSSYDCPYGHCSSGVDSAGEIDAWGHGTEVIVSS
VL: ALTQPSSVSANPGETVKITCSGGGSEEEQYYYGWYQQKPGSAPVTLIYQDEERPSDIPSRFSGSTSGSTATLTITGVQAGDEADYYCGSWDSEDEDHFGAGTTLTVL
modifications: Low-PI VH, 1-30 VH, 1-17 VH, 1-32 VH, 4-11 VH, 6-10 VH; 1-30 VL
number of CtBP2 puncta in inner hair cells [1]: increased (as compared to the FAM19A5 protein alone group) and comparable to that of the control group | ABR threshold vs control antibody ([2]; 30 mg/kg i.v. weekly x5): did not appear to be any significant differences | Wave I amplitude vs control antibody [2, 3]: noticeable differences were observed | Wave IV amplitude vs control antibody [2, 3]: noticeable differences were observed

Reference: patent US20260265360A1, “USE OF ANTI-FAM19A5 ANTAGONISTS FOR TREATING HEARING DISORDERS” (NEURACLE SCIENCE CO., LTD., priority 2023, published 2026)
